Reference: IntAct's records for PubMed 19135897

B1: Mitochondrial Rho GTPase (Drosophila melanogaster (Fruit fly)), Q8IMX7 (parent)
chain: MGQYTASQRKNVRILLVGDAGVGKTSLILSLVSEEYPEEVPPRAEEITIPANVTPEQVPTSIVDFSAVEQSEDALAAEINKAHVVCIVYAVDDDDTLDRITSHWLPLVRAKCNPSLDGEGDAEAEAEGDTQREPIRKPIVLVGNKIDLIEYSTMDSVLAIMEDYPEIESCVECSAKSLHNISEMFYYAQKAVLHPTSPLYMMEEQELTSACKKSLVRIFKICDIDGDNLLNDYELNLFQRRCFNTPLQPQILDEVKAVIQKNVPDGIYNDAVTLKGFLFLHCLFIQRGRNETTWAVLRRFGYNDQLEMCQEYLRPPLKIPPGSSTELSHRGQQFLIAVFERYDRDGDGALSPEEHKMLFSTCPAAPWSYSTDIRKSCPINETTGWVTLHGWLCRWTLMTLIDVVKTMEYLAYLGFNVHENDSQLAAIHVTRERRIDLAKRQSSRSVYKCHVIGPKGSGKTGMCRGFLVEDMHKLIGKEFKTNVVNCINSVQVYGQEKHLILRDIDVRHALDPLQPQEVNCDVACLVYDSSNPRSFEYVARIYIKYYAESKIPVMIVGTKCDMDERRQDYLMQPSEFCDKYKLLPPHLFSLKTNKKELYTKLATMAAFPHLRQFGLMTEDPKLWLKAGLGVAAATMLGFIVLKTISAAGAHTR
B2: Mitochondrial Rho GTPase 1 (Homo sapiens), Q8IXI2 (parent)
chain: MKKDVRILLVGEPRVGKTSLIMSLVSEEFPEEVPPRAEEITIPADVTPERVPTHIVDYSEAEQSDEQLHQEISQANVICIVYAVNNKHSIDKVTSRWIPLINERTDKDSRLPLILVGNKSDLVEYSSMETILPIMNQYTEIETCVECSAKNLKNISELFYYAQKAVLHPTGPLYCPEEKEMKPACIKALTRIFKISDQDNDGTLNDAELNFFQRICFNTPLAPQALEDVKNVVRKHISDGVADSGLTLKGFLFLHTLFIQRGRHETTWTVLRRFGYDDDLDLTPEYLFPLLKIPPDCTTELNHHAYLFLQSTFDKHDLDRDCALSPDELKDLFKVFPYIPWGPDVNNTVCTNERGWITYQGFLSQWTLTTYLDVQRCLEYLGYLGYSILTEQESQASAVTVTRDKKIDLQKKQTQRNVFRCNVIGVKNCGKSGVLQALLGRNLMRQKKIREDHKSYYAINTVYVYGQEKYLLLHDISESEFLTEAEIICDVVCLVYDVSNPKSFEYCARIFKQHFMDSRIPCLIVAAKSDLHEVKQEYSISPTDFCRKHKMPPPQAFTCNTADAPSKDIFVKLTTMAMYPHVTQADLKSSTFWLRASFGATVFAVLGFAMYKALLKQR

Columns and labels:
kinh_rat Kif5b, Q2PQA9 = variants of: B1; details: with kinh_rat Kif5b
kif5c_rat Kif5c, P56536 [1] = variants of: B2; details: with kif5c_rat Kif5c
kif5c_rat Kif5c, P56536 [2] = variants of: B2; details: with kif5c_rat Kif5c; remark: listed apart in the source
[3] = variants of: B2; details: with kif5c_human KIF5C

Chain of kif5c_rat Kif5c, P56536 (P56536 whole entry): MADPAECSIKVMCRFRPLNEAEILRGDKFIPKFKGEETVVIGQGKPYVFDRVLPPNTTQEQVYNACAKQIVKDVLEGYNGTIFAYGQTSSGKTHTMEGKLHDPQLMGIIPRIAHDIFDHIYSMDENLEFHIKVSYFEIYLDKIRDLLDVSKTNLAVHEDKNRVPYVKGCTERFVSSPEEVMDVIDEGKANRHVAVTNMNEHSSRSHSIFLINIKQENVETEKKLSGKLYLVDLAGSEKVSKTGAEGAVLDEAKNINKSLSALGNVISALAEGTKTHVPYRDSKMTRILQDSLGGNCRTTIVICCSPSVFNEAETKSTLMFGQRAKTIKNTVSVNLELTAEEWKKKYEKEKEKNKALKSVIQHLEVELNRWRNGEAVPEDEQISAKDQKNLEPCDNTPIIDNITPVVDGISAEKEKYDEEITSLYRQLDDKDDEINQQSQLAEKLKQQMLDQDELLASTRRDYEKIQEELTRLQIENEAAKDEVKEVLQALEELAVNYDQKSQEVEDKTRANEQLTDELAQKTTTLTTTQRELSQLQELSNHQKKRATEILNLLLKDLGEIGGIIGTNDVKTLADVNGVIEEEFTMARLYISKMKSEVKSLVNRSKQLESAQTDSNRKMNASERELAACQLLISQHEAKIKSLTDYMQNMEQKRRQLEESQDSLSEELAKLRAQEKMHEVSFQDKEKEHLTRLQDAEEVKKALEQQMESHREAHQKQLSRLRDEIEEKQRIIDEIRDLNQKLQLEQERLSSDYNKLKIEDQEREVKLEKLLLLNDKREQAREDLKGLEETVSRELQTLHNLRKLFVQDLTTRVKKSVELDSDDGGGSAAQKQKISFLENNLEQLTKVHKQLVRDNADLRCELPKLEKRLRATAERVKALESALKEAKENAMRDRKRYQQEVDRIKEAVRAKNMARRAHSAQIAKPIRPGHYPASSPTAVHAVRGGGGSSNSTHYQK
Chain of kinh_rat Kif5b, Q2PQA9 (Q2PQA9 whole entry): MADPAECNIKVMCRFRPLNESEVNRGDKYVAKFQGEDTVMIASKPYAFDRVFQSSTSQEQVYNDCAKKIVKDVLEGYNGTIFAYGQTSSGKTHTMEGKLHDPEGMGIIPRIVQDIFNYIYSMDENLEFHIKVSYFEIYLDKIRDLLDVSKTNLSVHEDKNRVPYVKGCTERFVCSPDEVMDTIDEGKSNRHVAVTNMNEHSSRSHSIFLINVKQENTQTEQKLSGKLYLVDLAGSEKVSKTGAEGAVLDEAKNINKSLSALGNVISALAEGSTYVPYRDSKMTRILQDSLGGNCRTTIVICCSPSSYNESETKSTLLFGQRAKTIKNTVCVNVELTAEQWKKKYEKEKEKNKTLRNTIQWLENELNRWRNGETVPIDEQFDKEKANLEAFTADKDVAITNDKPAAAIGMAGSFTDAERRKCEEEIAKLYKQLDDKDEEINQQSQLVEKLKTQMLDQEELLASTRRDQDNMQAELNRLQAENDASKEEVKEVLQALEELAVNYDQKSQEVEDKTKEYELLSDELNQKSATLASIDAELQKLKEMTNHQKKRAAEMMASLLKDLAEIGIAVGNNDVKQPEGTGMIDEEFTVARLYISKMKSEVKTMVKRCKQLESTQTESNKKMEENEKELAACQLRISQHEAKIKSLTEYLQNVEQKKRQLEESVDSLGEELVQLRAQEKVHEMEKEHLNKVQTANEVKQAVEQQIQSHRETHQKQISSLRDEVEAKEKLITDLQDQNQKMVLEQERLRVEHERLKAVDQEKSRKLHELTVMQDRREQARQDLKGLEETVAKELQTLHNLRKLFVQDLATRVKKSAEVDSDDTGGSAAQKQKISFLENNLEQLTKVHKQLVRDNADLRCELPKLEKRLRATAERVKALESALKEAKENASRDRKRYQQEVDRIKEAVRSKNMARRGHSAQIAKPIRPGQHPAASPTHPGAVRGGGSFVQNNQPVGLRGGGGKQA

effect of a mutation on the interaction (kinh_rat Kif5b, Q2PQA9)	effect of a mutation on the interaction (kif5c_rat Kif5c, P56536 [1])	effect of a mutation on the interaction (kif5c_rat Kif5c, P56536 [2])	effect of a mutation on the interaction [3]	Variant
decreasing interaction	–	–	–	E234K;D345K
–	decreasing interaction	decreasing interaction	decreasing interaction strength	E208K;E328K
